Among the data in patent publication US20230366033A1 (University of Texas, published 2023) are Kd values, retold here.

Assay [1] deals with T1, GRB2-SH2 domain, purified, Atto488-labelled (UniProt P62993 60-152, limits assumed, Atto488 label).
T1 construct: domain: SH2; Individual GRB2 domains generated as described before (Ahmed et al., 2010)
Nature of the assay: MST; 100 nM Atto488-labelled GRB2-SH2 domain, peptide titrated; unphosphorylated MRE11 peptide.
Description: (§1) Microscale thermophoresis. […] The Kd values were measured using the Monolith NT.115 system (Nano Temper). […] The samples were loaded into silica capillaries (Polymicro Technologies) after incubation at room temperature for 15 min. Measurements were performed at 22° C. using 20% LED power and 40% IR-laser power. Measurements were also carried out using 20% and 60% IR-laser power for comparison. Data analyses were performed using Nano Temper Analysis software using the Kd curve fitting function. Raw data were exported and fitting curves were generated using Prism 8 (GraphPad Software) for presentation.

Assay [2] deals with T2, GRB2 K109R mutant, bacterially expressed and purified (UniProt P62993 1-217, Atto488 label in MST).
T2 construct: domain: full-length; also called K109RGRB2; K109R GRB2 mutant
Nature of the assay: MST, 100 nM Atto488-labelled K109R GRB2, peptide titrated.
Description: as §1

For WVNYQDGNLN [MRE11 peptide WVNYQDGNLN], the Kd was 33 µM in assay [1] and more than 200 µM in assay [2].

As usually defined, the Kd is the free concentration of one partner at which half of the binding sites on the other are occupied at equilibrium, for simple one-to-one binding. Lower therefore signals a tighter complex.
